Target: MD39 HIV Env stabilized SOSIP trimer (MD39 HIV Env gp140) (HIV)
Assay: SEC-MALS; immunogens after S200 Increase size-exclusion chromatography in TBS; DAWN HELEOS II and Optilab T-rEX

MD39 HIV Env stabilized SOSIP trimer (MD39 HIV Env gp140)
stoichiometry N: 3

— article PMC12335825
